Patent US20070041992A1

Molecular target: low density lipoprotein receptor-related protein (LRP-1) on rat liver cells (rat) (UniProt G3V928)
Assay: cell-based or functional assay

Sequence of low density lipoprotein receptor-related protein (LRP-1) on rat liver cells (rat) (G3V928 20-4545): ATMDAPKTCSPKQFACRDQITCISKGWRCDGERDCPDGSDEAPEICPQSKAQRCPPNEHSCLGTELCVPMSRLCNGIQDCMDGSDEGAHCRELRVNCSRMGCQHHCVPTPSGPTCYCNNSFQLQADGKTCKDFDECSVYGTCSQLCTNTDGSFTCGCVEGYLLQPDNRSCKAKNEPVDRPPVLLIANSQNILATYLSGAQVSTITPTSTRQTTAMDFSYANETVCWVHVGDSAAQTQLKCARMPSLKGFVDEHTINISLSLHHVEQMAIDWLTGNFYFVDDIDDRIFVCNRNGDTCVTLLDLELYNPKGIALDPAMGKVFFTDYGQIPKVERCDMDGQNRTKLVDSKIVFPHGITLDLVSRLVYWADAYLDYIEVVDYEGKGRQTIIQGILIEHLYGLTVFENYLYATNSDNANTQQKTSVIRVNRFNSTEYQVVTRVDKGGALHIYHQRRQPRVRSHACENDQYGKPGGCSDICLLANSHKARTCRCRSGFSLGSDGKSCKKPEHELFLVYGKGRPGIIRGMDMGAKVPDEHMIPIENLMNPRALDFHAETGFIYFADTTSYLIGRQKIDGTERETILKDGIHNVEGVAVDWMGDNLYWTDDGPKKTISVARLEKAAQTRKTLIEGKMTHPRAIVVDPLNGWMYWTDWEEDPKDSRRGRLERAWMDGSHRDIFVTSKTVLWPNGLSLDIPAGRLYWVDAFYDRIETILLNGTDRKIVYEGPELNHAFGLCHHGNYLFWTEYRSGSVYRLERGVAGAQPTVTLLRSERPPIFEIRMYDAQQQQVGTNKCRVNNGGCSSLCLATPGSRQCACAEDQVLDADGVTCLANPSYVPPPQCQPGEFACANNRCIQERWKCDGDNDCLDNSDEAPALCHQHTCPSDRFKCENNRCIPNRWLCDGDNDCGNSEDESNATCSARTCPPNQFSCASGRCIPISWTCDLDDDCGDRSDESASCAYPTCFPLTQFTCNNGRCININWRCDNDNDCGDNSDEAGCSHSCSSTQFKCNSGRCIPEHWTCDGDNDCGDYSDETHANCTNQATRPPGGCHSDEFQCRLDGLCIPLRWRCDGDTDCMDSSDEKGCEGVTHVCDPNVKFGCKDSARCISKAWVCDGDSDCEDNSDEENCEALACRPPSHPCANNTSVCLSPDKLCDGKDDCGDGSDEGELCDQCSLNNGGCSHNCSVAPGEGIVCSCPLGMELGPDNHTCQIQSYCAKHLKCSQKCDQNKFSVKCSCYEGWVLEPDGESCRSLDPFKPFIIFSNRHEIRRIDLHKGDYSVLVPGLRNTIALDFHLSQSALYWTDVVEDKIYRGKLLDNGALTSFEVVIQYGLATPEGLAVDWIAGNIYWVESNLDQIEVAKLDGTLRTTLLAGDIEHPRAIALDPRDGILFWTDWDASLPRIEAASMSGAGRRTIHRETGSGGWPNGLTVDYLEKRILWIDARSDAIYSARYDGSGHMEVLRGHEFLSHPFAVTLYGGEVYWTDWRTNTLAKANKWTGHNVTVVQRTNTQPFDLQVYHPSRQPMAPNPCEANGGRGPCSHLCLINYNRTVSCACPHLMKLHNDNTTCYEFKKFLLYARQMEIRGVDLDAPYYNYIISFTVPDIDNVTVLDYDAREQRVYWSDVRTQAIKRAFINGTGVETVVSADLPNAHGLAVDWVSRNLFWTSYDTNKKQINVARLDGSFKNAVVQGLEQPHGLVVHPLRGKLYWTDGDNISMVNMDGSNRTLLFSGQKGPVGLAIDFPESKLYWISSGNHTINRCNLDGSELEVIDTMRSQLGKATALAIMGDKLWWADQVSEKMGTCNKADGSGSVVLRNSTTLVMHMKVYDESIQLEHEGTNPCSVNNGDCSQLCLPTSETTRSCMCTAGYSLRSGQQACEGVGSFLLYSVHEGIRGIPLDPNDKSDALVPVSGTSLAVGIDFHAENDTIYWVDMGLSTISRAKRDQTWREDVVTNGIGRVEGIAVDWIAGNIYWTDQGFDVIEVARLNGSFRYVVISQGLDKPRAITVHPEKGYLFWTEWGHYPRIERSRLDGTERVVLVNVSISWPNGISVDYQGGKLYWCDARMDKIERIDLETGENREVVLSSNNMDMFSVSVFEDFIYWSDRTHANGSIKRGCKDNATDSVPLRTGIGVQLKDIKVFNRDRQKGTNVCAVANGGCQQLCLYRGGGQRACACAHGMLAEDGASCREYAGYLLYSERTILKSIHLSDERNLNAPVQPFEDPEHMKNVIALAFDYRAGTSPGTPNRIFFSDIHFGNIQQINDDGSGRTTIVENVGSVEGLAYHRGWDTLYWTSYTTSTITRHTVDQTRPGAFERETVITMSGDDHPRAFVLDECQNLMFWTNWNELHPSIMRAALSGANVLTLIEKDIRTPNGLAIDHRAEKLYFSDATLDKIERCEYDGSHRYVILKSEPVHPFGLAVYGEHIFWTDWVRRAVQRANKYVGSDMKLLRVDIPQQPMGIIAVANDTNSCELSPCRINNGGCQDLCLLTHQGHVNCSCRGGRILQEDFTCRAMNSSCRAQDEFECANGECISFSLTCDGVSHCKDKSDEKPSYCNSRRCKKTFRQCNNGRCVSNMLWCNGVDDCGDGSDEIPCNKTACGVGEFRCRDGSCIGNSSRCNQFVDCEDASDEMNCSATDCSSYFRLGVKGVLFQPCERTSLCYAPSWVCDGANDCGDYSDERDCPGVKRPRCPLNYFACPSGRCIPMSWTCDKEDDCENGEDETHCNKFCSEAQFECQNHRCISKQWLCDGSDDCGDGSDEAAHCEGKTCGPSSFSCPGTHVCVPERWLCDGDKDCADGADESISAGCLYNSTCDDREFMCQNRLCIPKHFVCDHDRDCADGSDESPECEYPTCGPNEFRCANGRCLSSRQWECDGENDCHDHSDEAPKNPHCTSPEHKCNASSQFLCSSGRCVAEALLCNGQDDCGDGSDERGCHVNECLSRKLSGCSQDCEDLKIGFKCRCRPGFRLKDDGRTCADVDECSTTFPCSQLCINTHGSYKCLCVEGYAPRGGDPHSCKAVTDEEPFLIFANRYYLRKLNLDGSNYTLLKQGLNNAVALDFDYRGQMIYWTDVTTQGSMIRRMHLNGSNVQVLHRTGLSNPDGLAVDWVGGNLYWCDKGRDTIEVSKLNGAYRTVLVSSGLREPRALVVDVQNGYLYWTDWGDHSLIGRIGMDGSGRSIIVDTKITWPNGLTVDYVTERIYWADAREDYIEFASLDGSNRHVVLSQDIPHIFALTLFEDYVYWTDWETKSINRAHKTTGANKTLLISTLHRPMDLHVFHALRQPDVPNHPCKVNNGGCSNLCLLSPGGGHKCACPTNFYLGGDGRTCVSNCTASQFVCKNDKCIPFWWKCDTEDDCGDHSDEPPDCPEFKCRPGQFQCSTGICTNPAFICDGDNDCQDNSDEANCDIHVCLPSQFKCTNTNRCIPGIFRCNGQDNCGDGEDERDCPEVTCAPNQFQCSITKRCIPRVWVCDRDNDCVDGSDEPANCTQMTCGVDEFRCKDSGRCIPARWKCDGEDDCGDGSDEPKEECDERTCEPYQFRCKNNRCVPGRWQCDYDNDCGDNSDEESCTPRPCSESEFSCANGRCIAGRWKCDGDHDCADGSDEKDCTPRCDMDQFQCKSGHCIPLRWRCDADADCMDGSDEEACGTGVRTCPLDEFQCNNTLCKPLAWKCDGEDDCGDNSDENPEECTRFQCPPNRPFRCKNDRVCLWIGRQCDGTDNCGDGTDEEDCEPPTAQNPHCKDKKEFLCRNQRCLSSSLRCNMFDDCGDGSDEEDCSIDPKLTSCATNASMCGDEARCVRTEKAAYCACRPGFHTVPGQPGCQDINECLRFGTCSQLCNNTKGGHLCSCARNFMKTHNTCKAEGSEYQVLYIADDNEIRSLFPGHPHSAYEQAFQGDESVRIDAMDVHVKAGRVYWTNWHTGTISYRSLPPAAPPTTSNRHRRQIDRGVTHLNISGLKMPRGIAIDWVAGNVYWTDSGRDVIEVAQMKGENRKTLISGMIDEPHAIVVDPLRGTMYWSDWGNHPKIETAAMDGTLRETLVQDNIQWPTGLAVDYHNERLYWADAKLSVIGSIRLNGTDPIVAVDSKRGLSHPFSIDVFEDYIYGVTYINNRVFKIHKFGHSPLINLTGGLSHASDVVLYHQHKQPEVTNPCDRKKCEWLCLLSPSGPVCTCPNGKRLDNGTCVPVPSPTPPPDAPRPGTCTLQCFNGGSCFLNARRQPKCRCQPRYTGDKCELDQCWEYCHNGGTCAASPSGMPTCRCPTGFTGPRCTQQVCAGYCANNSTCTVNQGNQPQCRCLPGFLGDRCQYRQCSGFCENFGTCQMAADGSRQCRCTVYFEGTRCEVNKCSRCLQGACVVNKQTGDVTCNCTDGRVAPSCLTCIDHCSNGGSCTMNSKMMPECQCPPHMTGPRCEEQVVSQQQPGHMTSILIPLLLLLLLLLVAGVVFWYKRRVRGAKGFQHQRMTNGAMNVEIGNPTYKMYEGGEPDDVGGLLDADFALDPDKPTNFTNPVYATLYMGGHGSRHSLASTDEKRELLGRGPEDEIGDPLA

P. falciparum CS protein CS27IVC-His6 (AA 27-123[NANPNVDP]3[NANP]21300-411) (from UniProt P05691 27-123) (ligand)
elevation of the cAMP level in Kupffer cells: 3 fold
